# Measurements published in patent publication US20090022738A1 (MICROMET, published 2009).
# T1: CD19 (human, UniProt P15391 20-556)
# T1 construct: whole, on cells; also called CD19 on NALM-6 cells
# T1 sequence (looked up): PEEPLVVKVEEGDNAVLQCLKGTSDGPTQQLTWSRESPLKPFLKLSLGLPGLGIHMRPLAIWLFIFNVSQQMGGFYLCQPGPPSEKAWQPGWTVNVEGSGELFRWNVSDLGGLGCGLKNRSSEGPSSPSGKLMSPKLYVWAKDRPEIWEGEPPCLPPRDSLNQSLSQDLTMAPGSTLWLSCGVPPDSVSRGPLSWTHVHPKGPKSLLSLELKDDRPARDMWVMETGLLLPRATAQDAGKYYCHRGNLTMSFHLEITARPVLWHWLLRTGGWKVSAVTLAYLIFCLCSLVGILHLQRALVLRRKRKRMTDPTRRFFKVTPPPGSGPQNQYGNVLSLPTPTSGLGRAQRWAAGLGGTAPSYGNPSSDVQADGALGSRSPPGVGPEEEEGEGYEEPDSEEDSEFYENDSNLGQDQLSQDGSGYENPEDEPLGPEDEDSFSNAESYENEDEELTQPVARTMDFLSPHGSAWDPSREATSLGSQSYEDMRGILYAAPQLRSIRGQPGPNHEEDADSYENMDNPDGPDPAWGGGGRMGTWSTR
# T2: Epithelial cell adhesion molecule (EpCAM) (human, UniProt P16422 24-314)
# T2 construct: whole, on cells; also called 17-1A antigen; KSA
# T2 sequence (looked up): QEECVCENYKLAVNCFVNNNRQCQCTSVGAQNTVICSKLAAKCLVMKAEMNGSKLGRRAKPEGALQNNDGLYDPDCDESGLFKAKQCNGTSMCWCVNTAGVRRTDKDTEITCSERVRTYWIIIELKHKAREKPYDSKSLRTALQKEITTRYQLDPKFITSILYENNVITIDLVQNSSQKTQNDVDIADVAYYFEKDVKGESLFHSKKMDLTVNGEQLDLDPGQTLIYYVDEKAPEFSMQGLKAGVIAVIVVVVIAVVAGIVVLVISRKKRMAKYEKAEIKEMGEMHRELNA
# What was measured:
# [1] = target: T3, human CD3 (human, UniProt P07766 23-207; P04234 22-171; P09693 23-182); assay: FACS, non-diluted crude supernatant on CD3-enriched PBMCs; anti-His + FITC anti-mouse
# T3 construct: whole, on cells; also called CD3 antigen; human CD3 complex
# Experimental: (§1) In order to analyze the binding efficacy of the deimmunized constructs to CD3 and CD19 a FACS-based assay was performed. Initially, crude supernatants were tested for binding on CD3-enriched PBMCs or CD19-positive NALM-6 cells. Cells were incubated with non-diluted supernatants for 30 minutes at 8° C. Upon two wash steps the cells were labeled with an anti-His antibody (Qiagen) under the same conditions. After additional wash steps binding of the constructs was detected with a FITC-conjugated sheep anti-mouse antibody (Sigma). Cells were analyzed with a FACS Calibur cytometer (B&D). As controls supernatants of anti-CD19×anti-CD3 and GFP-transfected cells were included. […] The positive control, which was a non-deimmunized anti-CD19×anti-CD3 construct reached a MFI of around 60 showing that the deimmunized constructs comprising anti-CD3 (VH5/VL1) (SEQ ID NO.:190), anti-CD3 (VH5/VL2) (SEQ ID NO.:192), anti-CD3 (VH5/VL3) (SEQ ID NO.:194), anti-CD3 (VH7/VL1) (SEQ ID NO.:196), anti-CD3 (VH7/VL2) (SEQ ID NO.:198) and anti-CD3 (VH7/VL3) (SEQ ID NO.:200) bound CD3 with extremely high efficacy.
# [2] = target: T3, human CD3; assay: FACS, purified construct at 0.5 µg/ml as printed, on CD3 positive cells
# [3] = target: T1, CD19; assay: FACS, crude supernatant on CD19-positive NALM-6 cells; negative control MFI ca. 3
# Experimental: as §1
# The FACS-based binding assay was also carried out for CD19. In this experiment CD19 and a secondary antibody was as a negative control. In this experiment, all assayed constructs achieved a MFI of at least 80 while the MFI of the negative control was ca. 3.
# [4] = target: T1, CD19; assay: FACS, purified constructs at 1 and 5 µg/ml on CD19-positive NALM cells
# Experimental: Binding was measured by a FACS-based assay using CD3 enriched PBMCs (A) or CD19-positive NALM-cells (B). A secondary antibody with CD3 positive cells was used as a negative control in (A) and a secondary antibody with CD19 positive cells was used as a negative control in (B). Constructs anti-CD19×anti-CD3 and anti-EpCAM (M79)×anti-CD3 were used as controls. Assay was carried out with concentrations of 1 μg/ml and 5 μg/ml. MFI indicates mean fluorescence intensity.
# as §1
# [5] = target: T2, Epithelial cell adhesion molecule …; assay: FACS, 10 µg/ml on EpCAM positive Kato III cells
# Experimental: (§2) Binding of the bispecific single chain molecules with anti-CD3 part in N-terminal orientation to EpCAM and CD3 were confirmed by FACS analyses. For that purpose the EpCAM positive human gastric cancer cell line Kato III (ATCC HTB-103) was used.
# (§3) Cells were cultured according to the recommendations of the supplier and a number of 200000 cells was incubated with 10 μg/ml of the construct in 50 μl PBS with 2% FCS (fetal calf serum). The binding of the construct was detected with an anti-His antibody (Penta-His Antibody, obtained from Qiagen, Hilden, FRG) at 2 μg/ml in PBS with 2% FCS. […] The samples were measured on a FACSscan (BD biosciences, Heidelberg, FRG).
# [6] = target: T3, human CD3; assay: FACS, 10 µg/ml on Jurkat cells
# Experimental: as §2, §3
Binder,MFI [1],"fold over the negative control (secondary antibody only, MFI ca. 3.5) [1]",MFI [2],MFI [3],MFI [4],binding result [5],binding result [6]
"anti-CD19×anti-CD3 (VH5/VL1) (SEQ ID NO.:190) (bispecific antibody, As m4: bispecific single chain, His-tagged; also called pEF anti-CD19×anti-CD3 (VH5/VL1)) DIQLTQSPASLAVSLGQRATISCKASQSVDYDGDSYLNWYQQIPGQPPKLLIYDASNLVSGIPPRFSGSGSGTDFTLNIHPVEKVDAATYHCQQSTEDPWTFGGGTKLEIKGGGGSGGGGSGGGGSQVQLQQSGAELVRPGSSVKISCKASGYAFSSYWMNWVKQRPGQGLEWIGQIWPGDGDTNYNGKFKGKATLTADESSSTAYMQLSSLASEDSAVYFCARRETTTVGRYYYAMDYWGQGTTVTVSSGGGGSDVQLVQSGAEVKKPGASVKVSCKASGYTFTRYTMHWVRQAPGQGLEWIGYINPSRGYTNYADSVKGRFTITTDKSTSTAYMELSSLRSEDTATYYCARYYDDHYCLDYWGQGTTVTVSSGEGTSTGSGGSGGSGGADDIQMTQSPSSLSASVGDRVTITCRASQSVSYMNWYQQKPGKAPKRWIYDTSKVASGVPARFSGSGSGTDYSLTINSLEAEDAATYYCQQWSSNPLTFGGGTKVEIK",≥ 90 MFI,~25 fold,≥ 40 MFI,≥ 80 MFI,~200 MFI,,
"anti-CD19×anti-CD3 (VH7/VL1) (SEQ ID NO.:196) (bispecific antibody, As m4: bispecific single chain, His-tagged; also called pEF anti-CD19×anti-CD3 (VH7/VL1)) DIQLTQSPASLAVSLGQRATISCKASQSVDYDGDSYLNWYQQIPGQPPKLLIYDASNLVSGIPPRFSGSGSGTDFTLNIHPVEKVDAATYHCQQSTEDPWTFGGGTKLEIKGGGGSGGGGSGGGGSQVQLQQSGAELVRPGSSVKISCKASGYAFSSYWMNWVKQRPGQGLEWIGQIWPGDGDTNYNGKFKGKATLTADESSSTAYMQLSSLASEDSAVYFCARRETTTVGRYYYAMDYWGQGTTVTVSSGGGGSDVQLVQSGAEVKKPGASVKVSCKASGYTFTRYTMHWVRQAPGQGLEWIGYINPSRGYTNYNQKFKDRVTITTDKSTSTAYMELSSLRSEDTAVYYCARYYDDHYCLDYWGQGTTVTVSSGEGTSTGSGGSGGSGGADDIQMTQSPSSLSASVGDRVTITCRASQSVSYMNWYQQKPGKAPKRWIYDTSKVASGVPARFSGSGSGTDYSLTINSLEAEDAATYYCQQWSSNPLTFGGGTKVEIK",≥ 90 MFI,~25 fold,≥ 40 MFI,≥ 80 MFI,~200 MFI,,
"deimmunized anti-CD3 (VH5/VL2)×5-10 (VL-VH) (SEQ ID NO.:39) (bispecific antibody, Bispecific single chain, VH(CD3)-VL(CD3)-VL(EpCAM)-VH(EpCAM); detected by anti-His; also called anti-CD3 (VH5/VL2)x5-10 (VL-VH)) DVQLVQSGAEVKKPGASVKVSCKASGYTFTRYTMHWVRQAPGQGLEWIGYINPSRGYTNYADSVKGRFTITTDKSTSTAYMELSSLRSEDTATYYCARYYDDHYCLDYWGQGTTVTVSSGEGTSTGSGGSGGSGGADDIVLTQSPATLSLSPGERATLSCRASQSVSYMNWYQQKPGKAPKRWIYDTSKVASGVPARFSGSGSGTDYSLTINSLEAEDAATYYCQQWSSNPLTFGGGTKVEIKSGGGGSELVMTQSPSSLTVTAGEKVTMSCKSSQSLLNSGNQKNYLTWYQQKPGQPPKLLIYWASTRESGVPDRFTGSGSGTDFTLTISSVQAEDLAVYYCQNDYSYPLTFGAGTKLEIKGGGGSGGGGSGGGGSEVQLLEQSGAELVRPGTSVKISCKASGYAFTNYWLGWVKQRPGHGLEWIGDIFPGSGNIHYNEKFKGKATLTADKSSSTAYMQLSSLTFEDSAVYFCARLRNWDEPMDYWGQGTTVTVSS",,,,,,binds,binds
"anti-CD19×anti-CD3 (VH7/VL2) (SEQ ID NO.:198) (bispecific antibody, As m4: bispecific single chain, His-tagged; all other places say VH7/VL2) DIQLTQSPASLAVSLGQRATISCKASQSVDYDGDSYLNWYQQIPGQPPKLLIYDASNLVSGIPPRFSGSGSGTDFTLNIHPVEKVDAATYHCQQSTEDPWTFGGGTKLEIKGGGGSGGGGSGGGGSQVQLQQSGAELVRPGSSVKISCKASGYAFSSYWMNWVKQRPGQGLEWIGQIWPGDGDTNYNGKFKGKATLTADESSSTAYMQLSSLASEDSAVYFCARRETTTVGRYYYAMDYWGQGTTVTVSSGGGGSDVQLVQSGAEVKKPGASVKVSCKASGYTFTRYTMHWVRQAPGQGLEWIGYINPSRGYTNYNQKFKDRVTITTDKSTSTAYMELSSLRSEDTAVYYCARYYDDHYCLDYWGQGTTVTVSSGEGTSTGSGGSGGSGGADDIVLTQSPATLSLSPGERATLSCRASQSVSYMNWYQQKPGKAPKRWIYDTSKVASGVPARFSGSGSGTDYSLTINSLEAEDAATYYCQQWSSNPLTFGGGTKVEIK",≥ 90 MFI,~25 fold,25 MFI,≥ 80 MFI,~200 MFI,,
"anti-CD19×anti-CD3 (VH7/VL3) (SEQ ID NO.:200) (bispecific antibody, As m4: bispecific single chain, His-tagged; also called pEF anti-CD19×anti-CD3 (VH7/VL3); anti-CD3 (VH7/VK3)) DIQLTQSPASLAVSLGQRATISCKASQSVDYDGDSYLNWYQQIPGQPPKLLIYDASNLVSGIPPRFSGSGSGTDFTLNIHPVEKVDAATYHCQQSTEDPWTFGGGTKLEIKGGGGSGGGGSGGGGSQVQLQQSGAELVRPGSSVKISCKASGYAFSSYWMNWVKQRPGQGLEWIGQIWPGDGDTNYNGKFKGKATLTADESSSTAYMQLSSLASEDSAVYFCARRETTTVGRYYYAMDYWGQGTTVTVSSGGGGSDVQLVQSGAEVKKPGASVKVSCKASGYTFTRYTMHWVRQAPGQGLEWIGYINPSRGYTNYNQKFKDRVTITTDKSTSTAYMELSSLRSEDTAVYYCARYYDDHYCLDYWGQGTTVTVSSGEGTSTGSGGSGGSGGADDIVLTQSPATLSLSPGERATLTCRASSSVSYMNWYQQKPGKAPKRWIYDTSKVASGVPARFSGSGSGTDYSLTINSLEAEDAATYYCQQWSSNPLTFGGGTKVEIK",≥ 90 MFI,~25 fold,≥ 40 MFI,≥ 80 MFI,~200 MFI,,
